B1: OR4K15 (parent)
chain: GUUAACGGUCAUAGGCCAUGGAAACUAGGAGCACCAUUUCGCUGCCAGUGAAGAAAUGAACAAAGAAAAUCUGGGCCAGGCAGGCAUCAAAAGAAAUAGUCUUGCGCUCAACCAGAAAGUCUGUAAUCAUUUUAAGGGUA

Variants of: B1
Assay: self-cleavage, relative activity (ratio to wild type); higher = more cleavage; in vitro, sequencing; the parent is a self-cleaving ribozyme

| Variant | self-cleavage |
| --- | --- |
| G29A A67G | 1.29 |
| A5C A126G | 1.54 |
| A60G A111U | 0.11 |
| A33G A62G | 1.11 |
| G28A U120C | 1.28 |
| A110G A140U | 0.18 |
| C101U | 0.41 |
| A5C U57C | 0.75 |
| A24G C77U | 1.55 |
| A69G U103C | 0.73 |
| A94G U103G | 0.03 |
| A68G A96C | 1.42 |
| U87C A135G | 1.81 |
| U12C A126C | 0.42 |
| A59G A110C | 0.44 |
| A18U A140G | 1.49 |
| A33G A78U | 0.14 |
| A82U A114U | 0.01 |
| A59G C71U | 0.22 |
| A30U U57A | 1.02 |
| A60G A140G | 1.21 |
| C25A A95G | 0.89 |
| A78G G123U | 0.25 |
| A36C A66U | 1.68 |

| Variant | self-cleavage |
| --- | --- |
| A18G A118U | 0.64 |
| G7A A27U | 0.85 |
| U57C U133C | 1.02 |
| U102A A114G | 0.43 |
| A54C U122C | 0.42 |
| G15A A126G | 1.51 |
| A91C | 1.53 |
| A47U A117U | 0.71 |
| U9A A63G | 1.23 |
| G7U A52G | 1.83 |
| C85A A98U | 1.17 |
| A90G A135C | 0.91 |
| U12G U37C | 1.48 |
| A66G U139A | 1.72 |
| U38C U70C | 1.05 |
| A66G C105G | 0.03 |
| U19C U102A | 1.29 |
| A59U C109U | 0.43 |
| U120G U130C | 1.46 |
| A60U A116G | 1.37 |
| U12C A59U | 0.65 |
| A60U A94U | 1.82 |
| A62G G83A | 0.99 |
| A51G A94G | 1.2 |

| Variant | self-cleavage |
| --- | --- |
| A118G A135G | 1.15 |
| A60G U132A | 1.17 |
| G44A U130C | 0.64 |
| G44C A52G | 1.4 |
| U37C A66U | 1.7 |
| A23G A36U | 1.74 |
| U9A A24U | 2.1 |
| U100C U139C | 2.29 |
| G73A A86G | 0.05 |
| A27G A47G | 0.68 |
| G31U A68G | 1.26 |
| C6U A78U | 0.25 |
| A68G A98G | 0.16 |
| A68G A98U | 0.78 |
| U38G A95G | 2.17 |
| A56G A68G | 1.51 |
| A18G A78G | 0.33 |
| A33G A63G | 0.45 |
| G74U C113U | 0.02 |
| U3A U131C | 0.64 |
| A30U A78U | 0.2 |
| A24U U100A | 0.31 |
| A24G A63G | 1.17 |
| U2A A36U | 1.18 |

| Variant | self-cleavage |
| --- | --- |
| G1U A5G | 0.45 |
| A117G A118C | 0.24 |
| A63G U127G | 2.41 |
| A118G U124C | 1.37 |
| A52G A56C | 0.99 |
| G20U C77A | 0.73 |
| G75U A90U | 0.12 |
| A86G A110U | 1.06 |
| A56G A126U | 0.95 |
| U19C A69G | 1.05 |
| A78G A110G | 0.11 |
| G8A A18U | 0.97 |
| U102C A134G | 1.14 |
| U19C A92U | 1.93 |
| U127C U132C | 0.86 |
| G106U U132A | 0.03 |
| U97C U120A | 0.31 |
| A4G A22G | 1.17 |
| U103A A140U | 0.46 |
| G41C U139A | 1.78 |
| U57C | 0.86 |
| A59U A89U | 2.6 |
| A5U A117G | 1.74 |
| A63G C101A | 0.32 |

| Variant | self-cleavage |
| --- | --- |
| A52C A78C | 0.21 |
| U57C A126G | 0.4 |
| A36G A62C | 1.51 |
| U102C U103A | 0.2 |
| C105G A135G | 0.03 |
| A64G A66G | 1.39 |
| A56G U132C | 0.6 |
| A94U A135G | 2.33 |
| G21C A126G | 1.63 |
| A18G U103G | 0.05 |
| A62G A66G | 1.48 |
| U39C A63G | 1.66 |
| A22U A33G | 0.56 |
| A51U U122A | 0.74 |
| A18G A89G | 2.05 |
| C16U U39G | 1.27 |
| U49C U132C | 1.45 |
| U72A U122C | 0.12 |
| A33G A116U | 0.21 |
| A13G U130A | 0.34 |
| A36U A140G | 2.09 |
| G15C | 1.05 |
| U9C A27G | 1.55 |
| A55U A94U | 0.43 |

| Variant | self-cleavage |
| --- | --- |
| U102A G119A | 1.23 |
| G31A A90G | 1.8 |
| C85U A134G | 2.28 |
| A23U U43A | 1.44 |
| C46U A55G | 1.14 |
| U38C A118U | 0.98 |
| G74A C128U | 0.13 |
| U38C C109U | 0.26 |
| A55U C109U | 0.31 |
| U39C A68G | 1.37 |
| A54U A96G | 1.68 |
| U3C A86G | 1.05 |
| U57A A111G | 0.02 |
| U108C A111G | 0.01 |
| A54U U133A | 1.49 |
| U37C G58A | 1.14 |
| A55G A129G | 0.99 |
| A36G A91G | 0.95 |
| A13G U37A | 0.82 |
| A64G A140U | 1.37 |
| U87C U133C | 1.4 |
| A23G G104A | 0.03 |
| U39G U102C | 2.67 |
| A64U U102A | 1.07 |

| Variant | self-cleavage |
| --- | --- |
| A30C A36G | 2.26 |
| A5G U102C | 1.34 |
| C17U A47U | 1.43 |
| C32U U130C | 1.26 |
| G20A A60U | 1.92 |
| U108C A116G | 0.01 |
| A36C A94G | 1.94 |
| A78G A126G | 0.15 |
| A33C A51U | 2.27 |
| U12A U26C | 2.17 |
| U37C A69U | 1.6 |
| A91U A118G | 0.94 |
| A36G A95G | 2.04 |
| C71U U87A | 0.61 |
| C61U G106U | 0.04 |
| G29C U100C | 2.39 |
| C10U U57C | 1.03 |
| A67C A89U | 2.57 |
| C45U A68G | 1.96 |
| U38A U87A | 2.41 |
| A64C | 1.69 |
| A30U A91U | 0.83 |
| A30G A95G | 0.44 |

Source: the RNAGym collection of RNA variant scans (doi:10.7554/elife.90254)
